Residue numbers refer to the chain shown, from its start. Several values for one entry are separate records, joined by “and”; a condition that tells them apart may be missing. Equal entries are not always repeated. Where two headings read alike, the source gives them in different places.

One experiment addresses T1, human GPRC5A (human, UniProt Q8NFJ5 1-357).
T1 construct: whole, on cells; also called hu GPCR5A; GPRCSA
As to the kind of experiment: cell ELISA on stably transfected CHO cells. How it is done:
(§1) Stable transfected CHO clones expressing either human GPRCSD or cynomolgus GPRCSD or murine GPRCSD or human GPRCSA were used to analyze the binding of potential lead candidate antibodies as IgGs. In detail, 10⁴ cells (viability≥98%) were seeded into 384 well-microtiter plates (BD Poly D-Lysin, #356662, volume: 25 μl/well) using fresh culture medium. After overnight incubation at 37° C., 25 μl/well dilutions of antibodies were added (15×1:3 dilutions in 1×PBS, assay conc. starts at 30 μg/ml) to the cells for 2 hours at 4° C. After one washing step using 90 μl/well PBST (10×PBS, Roche, #11666789001+0.1% Tween 20), cells were subsequently fixed by the addition of 50 μl/well 0.05% glutaraldehyde (Sigma Cat. No: G5882 in 1×PBS) for 10 min at room temperature (RT). After three additional washing steps using 90 μl/well PBST, secondary antibodies were added for detection: for human antibodies goat anti-human Ig a chain antibody HRP conjugate (Millipore #AP502P) diluted 1:2000 in blocking buffer (1×PBS (Roche #11666789001)+2% BSA (Bovine Serum Albumin Fraction V, fatty acid free, Roche, #10735086001)+0.05% Tween 20) was used (25 μl/well). […] After incubation for 1 h at RT and three additional washing steps using 90 μl/well PBST, 25 μl/well TMB substrate was added (Roche order no. 11835033001) for 10 min and color development to final ODs was determined by measurement at 370 nm/492 nm.
Cynomolgus crossreactivity was also detected for all other antibodies but at lower levels compared to 10B10 and 07A04 (FIG. 9). No significant binding to CHO cells expressing murine GPRC5D and no binding to CHO cells expressing the human version of GPRC5A was detected (FIG. 9).

Experiment [1] deals with T2, human GPRC5D (human, UniProt Q9NZD1 1-345). As to the kind of experiment: cell-based or functional assay.
T2 sequence (Q9NZD1 whole entry): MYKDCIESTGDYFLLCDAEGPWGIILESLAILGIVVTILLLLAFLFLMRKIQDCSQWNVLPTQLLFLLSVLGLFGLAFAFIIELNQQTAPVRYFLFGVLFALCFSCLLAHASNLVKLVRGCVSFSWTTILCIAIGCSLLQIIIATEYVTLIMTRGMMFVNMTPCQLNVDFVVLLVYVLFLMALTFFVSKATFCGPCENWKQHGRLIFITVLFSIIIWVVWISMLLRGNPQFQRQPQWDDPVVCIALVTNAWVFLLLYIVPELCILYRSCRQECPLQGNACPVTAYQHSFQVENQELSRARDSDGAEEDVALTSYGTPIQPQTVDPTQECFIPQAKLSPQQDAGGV
For experiment [2], the target named is T2, human GPRC5D. As to the kind of experiment: cell ELISA, CHO hu GPRC5D (EC/IC50 rel). A digest of the protocol:
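Stably transfected CHO cells seeded overnight, then incubated 2 h at 4° C with antibody IgGs in 15-point 1:3 dilutions from 30 μg/ml. Cells fixed with 0.05% glutaraldehyde; binding detected with HRP anti-human Ig and TMB, absorbance at 370/492 nm.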
(ELISA stands for enzyme-linked immunosorbent assay.)

The target of experiment [3] is T2, human GPRC5D. As to the kind of experiment: cell ELISA, CHO cells stably expressing human GPRC5D. Here is the method: as §1
The target in experiment [4] is T2, human GPRC5D. As to the kind of experiment: cell-based or functional assay. This is another data set of the same source.
Experiment [5] addresses T2, human GPRC5D. As to the kind of experiment: cell-based or functional assay. This is another data set of the same source.
For experiment [6], the target named is T2, human GPRC5D. As to the kind of experiment: cell-based or functional assay. This is another data set of the same source.
The target in experiment [7] is T2, human GPRC5D. As to the kind of experiment: cell-based or functional assay. The source holds these as a separate data set.
The target of experiment [8] is T2, human GPRC5D. As to the kind of experiment: cell-based or functional assay. This is another data set of the same source.
A further experiment addresses T3, human CD3 (human, UniProt P07766 23-207).
T3 construct: Expressed on Jurkat-NFAT reporter cells as part of the TCR/CD3 complex; also called hCD3; CD3 epsilon
As to the kind of experiment: flow cytometry on Jurkat-NFAT cells; paragraph 550 says these values were falsely calculated by a factor of 10 (too low). How it is done: (§2) To measure the binding to GPRC5D, we performed a flow cytometry-based binding assay on reported multiple myeloma cell lines (Lombardi et al., Molecular characterization of human multiple myeloma cell lines by integrative genomics: insights into the biology of the disease; Genes Chromosomes Cancer. 2007 March; 46(3):226-38). The cell line NCI-H929 (ATCC® CRL-9068) was cultured in RPMI 1640 with Glutamax medium (Gibco) supplemented with 10% FBS, 1× Penicillin/Streptomycin (Gibco), 1× Sodium Pyruvate (Gibco) and 50 μM beta-Mercaptoethanol (Gibco). Jurkat-NFAT reporter cells (a CD3-expressing human acute lymphatic leukemia reporter cell line with a NFAT promoter, GloResponse Jurkat NFAT-RE-luc2P, Promega #CS176501) were cultured in RPMI 1640, containing 2 g/l Glucose, 2 g/l NaHCO₃, 10% FCS, 25 mM HEPES, 2 mM L-Glutamine, 1×NEAA, 1× Sodium-pyruvate and 200 μg/ml Hygromycin B.
(§3) Flow cytometry acquisition was performed on a custom-designed BD Biosciences Fortessa and analyzed using BD Diva. EC50 values were calculated, using GraphPad Prism software.

The target of experiment [9] is T2, human GPRC5D. As to the kind of experiment: flow cytometry on NCI-H929 cells; paragraph 550 says these values were falsely calculated by a factor of 10 (too low). Here is the method: as §2, §3
The target of experiment [10] is T2, human GPRC5D. As to the kind of experiment: cell-based or functional assay. The source holds these as a separate data set.

T1 sequence (Q8NFJ5 whole entry): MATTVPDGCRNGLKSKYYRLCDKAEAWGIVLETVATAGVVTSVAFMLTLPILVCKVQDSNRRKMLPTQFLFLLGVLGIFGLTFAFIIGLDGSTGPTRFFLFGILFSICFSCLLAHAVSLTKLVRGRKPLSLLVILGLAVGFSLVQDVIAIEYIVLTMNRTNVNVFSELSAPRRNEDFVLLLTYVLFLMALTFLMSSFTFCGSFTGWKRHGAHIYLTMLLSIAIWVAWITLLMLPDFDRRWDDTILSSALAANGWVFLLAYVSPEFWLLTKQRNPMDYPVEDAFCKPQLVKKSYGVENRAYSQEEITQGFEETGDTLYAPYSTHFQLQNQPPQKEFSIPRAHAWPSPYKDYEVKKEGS
T3 sequence (P07766 23-207 limits assumed): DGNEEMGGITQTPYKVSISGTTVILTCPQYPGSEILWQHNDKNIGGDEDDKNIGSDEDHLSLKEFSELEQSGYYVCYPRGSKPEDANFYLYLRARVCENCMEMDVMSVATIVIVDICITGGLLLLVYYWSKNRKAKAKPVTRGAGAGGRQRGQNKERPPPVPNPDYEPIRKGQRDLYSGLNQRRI

B1: 5E11-IgG (antibody, V domains shown)
VH: ELQLEQSGGGLVQPGGSLTLSCAASGFTFSKYAMAWVRQAPTKGLEWVASISTGGVNTYYRDSVKARFTISRDNAKNTQYLQMDSLRSEDTATYYCATHTGDYFDYWGQGVMVTVSS
VL: DIVLTQSPALAVSPGQRATISCRASQSVSISGINLMNWYQQKPGQQPKLLIYHASILASGIPTRFSGSGSGTDFTLTIDPVQADDIATYYCQQTRESPLTFGSGTNLEIK
notes: Rat-derived variable domains, tested as IgG; also called P1AE5706 (parental); 5E11 parental
Take B1: the binding result with human GPRC5A was “no binding (tested: assay conc. starts at 30 µg/ml)”. Also, the “CAR-J2 EC50 [ng/mL] (PGLALA-CAR-J activation, L363 target cells)” value in the experiment with human GPRC5D [1] was 3.9 ng/mL. In addition, the EC50 (in general, the concentration at which the effect is half-maximal) with human GPRC5D [2] was 0.0104 µg/mL and 0.07 nM; with human GPRC5D [3] it was 0.0296 µg/mL and 0.198 nM. In the experiment with human GPRC5D [4], the “EC50 values of CAR-J activation” value is 3.9 ng/mL.

B2: 5F11-IgG (antibody, V domains shown)
VH: EVQLVESGGGLVQPGRSLKLSCAASGFSFSNYGMAWVRQAATKGLEWVASISTGGGNTYYRDSVKGRFIVSRDNAKNTQYLQMDSLRSEDTATYYCTRHDRGGLYWGQGVMVTVSS
VL: DIVMTQAPLSVSVTPGESASISCRSSKSLLHSNGITYVYWYFQKPGKSPQVLIYRMSNLASGVPDRFSGSGSETDFTLKISRVEAEDVGIYHCGQLLENPYTFGAGTELELK
notes: Rat-derived variable domains, tested as IgG; also called P1AE5733 (parental); 5F11_parental
Take B2: in the experiment with human GPRC5A, the binding result is “no binding (tested: assay conc. starts at 30 µg/ml)”. The EC50 in the experiment with human GPRC5D [2] is 0.0058 µg/mL and 0.04 nM; in the experiment with human GPRC5D [3], 0.0217 µg/mL and 0.144 nM. In the experiment with human GPRC5D [5], the “CAR-J2 EC50 [ng/mL] (PGLALA-CAR-J activation, L363 target cells)” value was found to be 2.65 ng/mL. In addition, in the experiment with human GPRC5D [4], the “EC50 values of CAR-J activation” value amounted to 2.65 ng/mL.

B3: 5F11-TCB (bispecific antibody, human IgG1, kappa, L234A L235A)
light 1: DIVMTQAPLSVSVTPGESASISCRSSKSLLHSNGITYVYWYFQKPGKSPQVLIYRMSNLASGVPDRFSGSGSETDFTLKISRVEAEDVGIYHCGQLLENPYTFGAGTELELKRTVAAPSVFIFPPSDRKLKSGTASVVCLLNNFYPREAKVQWKVDNALQSGNSQESVTEQDSKDSTYSLSSTLTLSKADYEKHKVYACEVTHQGLSSPVTKSFNRGEC
light 2: EVQLLESGGGLVQPGGSLRLSCAASGFTFSTYAMNWVRQAPGKGLEWVSRIRSKYNNYATYYADSVKGRFTISRDDSKNTLYLQMNSLRAEDTAVYYCVRHGNFGNSYVSWFAYWGQGTLVTVSSASVAAPSVFIFPPSDEQLKSGTASVVCLLNNFYPREAKVQWKVDNALQSGNSQESVTEQDSKDSTYSLSSTLTLSKADYEKHKVYACEVTHQGLSSPVTKSFNRGEC
heavy 1: EVQLVESGGGLVQPGRSLKLSCAASGFSFSNYGMAWVRQAATKGLEWVASISTGGGNTYYRDSVKGRFIVSRDNAKNTQYLQMDSLRSEDTATYYCTRHDRGGLYWGQGVMVTVSSASTKGPSVFPLAPSSKSTSGGTAALGCLVEDYFPEPVTVSWNSGALTSGVHTFPAVLQSSGLYSLSSVVTVPSSSLGTQTYICNVNHKPSNTKVDEKVEPKSCDKTHTCPPCPAPEAAGGPSVFLFPPKPKDTLMISRTPEVTCVVVDVSHEDPEVKFNWYVDGVEVHNAKTKPREEQYNSTYRVVSVLTVLHQDWLNGKEYKCKVSNKALGAPIEKTISKAKGQPREPQVCTLPPSRDELTKNQVSLSCAVKGFYPSDIAVEWESNGQPENNYKTTPPVLDSDGSFFLVSKLTVDKSRWQQGNVFSCSVMHEALHNHYTQKSLSLSPGK
heavy 2: not shown
notes: 2+1 anti-GPRC5D/anti-CD3 T cell bispecific: LC1 (GPRC5D), LC2 (CD3 crossed VH-CL), HC hole, HC knob; also called 5F11p-CH2527
Turning to B3, in the experiment with human GPRC5D [6], the “EC50 of anti-GPRC5D-TCB mediated killing, AMO-1” value is 3 pM; the “EC50 of anti-GPRC5D-TCB mediated killing, L363” value amounted to 1 pM; the “EC50 of anti-GPRC5D-TCB mediated killing, NCI-H929” value was 1 pM; the “EC50 of anti-GPRC5D-TCB mediated killing, RPMI-8226” value worked out at 2 pM. Further, in the experiment with human GPRC5D [7], the “EC50 in vitro killing assay, AMO-1” value came to 6 pM; the “EC50 in vitro killing assay, EJM” value was found to be 3 pM; the “EC50 in vitro killing assay, L363” value amounted to 3 pM; the “EC50 in vitro killing assay, MOLP-2” value was 1 pM. Besides, in the experiment with human GPRC5D [7], the “EC50 in vitro killing assay, NCI-H929” value stood at 4 pM; the “EC50 in vitro killing assay, OPM-2” value was 1 pM; the “EC50 in vitro killing assay, RPMI” value was found to be 6 pM. Besides, in the experiment with human GPRC5D [8], the “AUC, activation of Jurkat-NFAT reporter cells in presence of RPMI-8226 cells” value is 393000 and the “EC50 (pM), activation of Jurkat-NFAT reporter cells in presence of RPMI-8226 cells” value amounted to 14 pM. Moreover, the EC50 in the experiment with human CD3 is 2.31 nM. Moreover, the EC50 in the experiment with human GPRC5D [9] was 0.18 nM.

B4: 5F11(VH1c + VL1b)-C122-TCB (P1AE6624) (bispecific antibody, human IgG1, kappa, L234A L235A)
light 1: B3 light 1 with A7S, V11L, S12P, S18P, F42L, E73G, I90V, A105Q, E108K, L111I
light 2: B3 light 2 with T28Q, T31S, G102T, N103T, G105P, N106S, W111Y, F112Y, A113G
heavy 1: QVQLVESGGGVVQPGRSLRLSCAASGFSFSNYGMAWVRQAPGKGLEWVASISTGGGNTYYADSVKGRFTISRDNSKNTLYLQMNSLRAEDTAVYYCTRHDRGGLYWGQGTMVTVSSASTKGPSVFPLAPSSKSTSGGTAALGCLVEDYFPEPVTVSWNSGALTSGVHTFPAVLQSSGLYSLSSVVTVPSSSLGTQTYICNVNHKPSNTKVDEKVEPKSCDKTHTCPPCPAPEAAGGPSVFLFPPKPKDTLMISRTPEVTCVVVDVSHEDPEVKFNWYVDGVEVHNAKTKPREEQYNSTYRVVSVLTVLHQDWLNGKEYKCKVSNKALGAPIEKTISKAKGQPREPQVCTLPPSRDELTKNQVSLSCAVKGFYPSDIAVEWESNGQPENNYKTTPPVLDSDGSFFLVSKLTVDKSRWQQGNVFSCSVMHEALHNHYTQKSLSLSPGK
heavy 2: not shown
notes: 2+1 TCB: LC1 (anti-GPRC5D), LC2 (anti-CD3 crossed), HC1 Fc hole, HC2 Fc knob
Turning to B4, in the experiment with human GPRC5D [8], the “AUC, activation of Jurkat-NFAT reporter cells in presence of RPMI-8226 cells” value was found to be 881000 and the “EC50 (pM), activation of Jurkat-NFAT reporter cells in presence of RPMI-8226 cells” value is 4.5 pM. For the same molecule, the “EC50 (pM), activation of autologous T-cells (CD69 on CD8 T cells) with a primary MM sample” value with human GPRC5D [10] was determined as 1.06 pM. For the same molecule, the EC50 in the experiment with human GPRC5D [9] is 0.1 nM.

The values are drawn from patent US20220259318A1 (Hoffmann-La Roche, published 2022).
